# Measured values taken from the supplement of paper PMC9170038.
# Test system: K4 kissing-loop RNA reporter
# Experiment: apparent KD of K4 kissing-loop reporter; higher = weaker reporter binding
# Conditions: Eterna round: R107; input ligand: none
# Description: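 RNA-MaP round R107: designed RNA switches with theophylline, tryptophan, arginine or FMN aptamers are transcribed on-chip within common flanks. They are titrated with a labelled K4 kissing-loop RNA reporter in RNA-MaP buffer (100 mM Tris pH 7.5, 80 mM KCl, 4 mM MgCl2), without ligand or with the indicated ligand. Median apparent KD per design.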
# 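Note: bound reporter read as fluorescence of individual clusters on recovered sequencing chips by microscopy, with normalized cluster intensities fitted with a binding model.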
row,Sequence,apparent KD of K4 kissing-loop reporter
1,AGACCACAAAGUGGUCAGUGUUCGCUCCGGCGAGGACCGGUACGGCCGCCACUCGCGAGUGAUGUUCGCGAGUGGAGCGAACACA [Omei KL Tryp A Exc A v1],88.6 nM
2,GUUAUGGACCUGGAUACCAGCUGGUACUAAGUGGGAGAAUGAAAGUGAUGUUUUCGUGCUAGCCCUUGGCAGCCAGCAACCCGCA [XTheo-B7],89.4 nM
3,AAUUUAUUAACUGAUACCAGACUUUAGCGUGUUUAUAAGUCAAGUGAUGUUUGACUAUUAGUCCCUUGGCAGCAGUAUUUAUUAA [JR_SSTheophyB_Sub022],134 nM
4,AACCACUCGUUACAUCACUAUCGAGUGGAACGAGGACCGGUACGGCCGCCACUCGGUAUCUUGCAGUGAUGUUGCAAGAAAGAAU [KL-SSTryp-A #dotplot2 strengthened],256 nM
5,UACUAACGUUAAGGAUAUGCGUCGAUUACCGGUAAGUGAUGUUUAGCGCCCGGGCAACGGUGGGUCGCAGAAGGUAAACACAGUU [theeternabot_sameState_KL_FMN_B_19],795 nM
6,AAGGGCUAGGCGGCCGCCACUGGUCGUGUACACAUACGAACCAGUGAUGUUGGUAUUGUAUGCGACAGGACCGGGCCUAGCCGAA [Exclusion - Tryptophan B (Freestyle 27)],249 nM
7,CGGAUGUAGUGAUGUUAUAUUAGAUGUAGACGAGGACCGGUACGGCCGCCACUCGUAACGGCUGCUAGCGCGUUGCGAGGUGUGC [ExTryptoA.Cl],721 nM
8,AAGUGAUGUUGUAGUGAUGUUGUGAUGUUGCAGGAUAUAUAGUGAUGUAGAAGGGUAAGGACUGUUUUUUUUUUUGAGUGAUGUU [ookooyzrmullin],70.5 nM
9,UAUGAAGGUGGAGGAUAUUGAUUGAAUCUUGGUCAGGAGUGAUGUUCCGGGAAGCCUUGGAUUCAUCGAGAAGGCCAAGGAUAGU [Extra 3],344 nM

# Same assay, conditions: Eterna round: R107; input ligand: theophylline 20 uM
row,Sequence,apparent KD of K4 kissing-loop reporter
1,AUAAUUAUGACGGCCGCCACUGAGAGUAGUGAUGUUACUCUUUUCCUUUAGUAAUAAUUUUUUAUCAGGACCGGGUUAUUUGAAU [JR_Nu_ExcTryptoB_Sub027],64.4 nM
2,AAUAAGGUCGCCGAUACCAGCGCAGGCAGAGCAAAGCUCUGCCGGGUAGUGAUGUUACCGCGCCCUUGGCAGCGGUGGCACGACC [Omei KL Theo B SS C v1],398 nM
3,GCUGAGGAGUGAUGUUCCAAGUGAUGUUAACGAGGACCGGUACGGCCGCCACUCGAUACGGCCGGACCGUAAGAUAAACUACAGC [Same State - Tryptophan A (Freestyle 7)],409 nM
4,UCAUGUGCCAGUGAUGUUGGCGUACGUGAUACCAGACGAAUAAAAGUCCCUUGGCAGCACAAAUAAGCCAAGAUAGAUGAAUGAU [Exclusion Theophylline A GF 1],137 nM
5,UGGAUAUAGUGAUGUUAUAUAGAGAUAGAUACCAGUUAAGAGAAUAGCCCUUGGCAGCUGAAAGAAGUAUCAUUAGAGAAGAAUG [ExTheophyl.Ab],170 nM
6,GCCGUAGAUUGAAGGAGCGUGGAACUAUGGCUUGAACAGUGAUGUUGUUUAUCUAGGUAGCCGCAGGUAGGUCGCAAUCUACGGC,239 nM
7,ACCUACCAUUAGUGAUGUUAAUGGACGGAAGGAGCGCGGAUAUCUGCAGGUAGGUCGCCGAAGGCUAGACAUUGUCUAGCCAUUA [AK1 SS Arginine A],107 nM
8,UUUCUUUUAAUAACACUUUAUACAACUGAAGGAGCGACAAUAAAGUCAGGUAGGUCGCAGAAUUAAUGAGUGAUGUUCAUAUUUA [JR_ExcArginiA_Sub012],180 nM
9,AGACCACAAAGUGGUCAGUGUUCGCUCCGGCGAGGACCGGUACGGCCGCCACUCGCGAGUGAUGUUCGCGAGUGGAGCGAACACA [Omei KL Tryp A Exc A v1],76 nM
10,GUUAUGGACCUGGAUACCAGCUGGUACUAAGUGGGAGAAUGAAAGUGAUGUUUUCGUGCUAGCCCUUGGCAGCCAGCAACCCGCA [XTheo-B7],79.4 nM
11,AAUUUAUUAACUGAUACCAGACUUUAGCGUGUUUAUAAGUCAAGUGAUGUUUGACUAUUAGUCCCUUGGCAGCAGUAUUUAUUAA [JR_SSTheophyB_Sub022],114 nM
12,AACCACUCGUUACAUCACUAUCGAGUGGAACGAGGACCGGUACGGCCGCCACUCGGUAUCUUGCAGUGAUGUUGCAAGAAAGAAU [KL-SSTryp-A #dotplot2 strengthened],164 nM
13,UACUAACGUUAAGGAUAUGCGUCGAUUACCGGUAAGUGAUGUUUAGCGCCCGGGCAACGGUGGGUCGCAGAAGGUAAACACAGUU [theeternabot_sameState_KL_FMN_B_19],640 nM
14,AAGGGCUAGGCGGCCGCCACUGGUCGUGUACACAUACGAACCAGUGAUGUUGGUAUUGUAUGCGACAGGACCGGGCCUAGCCGAA [Exclusion - Tryptophan B (Freestyle 27)],364 nM
15,CGGAUGUAGUGAUGUUAUAUUAGAUGUAGACGAGGACCGGUACGGCCGCCACUCGUAACGGCUGCUAGCGCGUUGCGAGGUGUGC [ExTryptoA.Cl],570 nM
16,AAGUGAUGUUGUAGUGAUGUUGUGAUGUUGCAGGAUAUAUAGUGAUGUAGAAGGGUAAGGACUGUUUUUUUUUUUGAGUGAUGUU [ookooyzrmullin],56.8 nM
17,UAUGAAGGUGGAGGAUAUUGAUUGAAUCUUGGUCAGGAGUGAUGUUCCGGGAAGCCUUGGAUUCAUCGAGAAGGCCAAGGAUAGU [Extra 3],330 nM

# Same assay, conditions: Eterna round: R107; input ligand: tryptophan 2.4 mM
row,Sequence,apparent KD of K4 kissing-loop reporter
1,AUAAUUAUGACGGCCGCCACUGAGAGUAGUGAUGUUACUCUUUUCCUUUAGUAAUAAUUUUUUAUCAGGACCGGGUUAUUUGAAU [JR_Nu_ExcTryptoB_Sub027],83.9 nM
2,AAUAAGGUCGCCGAUACCAGCGCAGGCAGAGCAAAGCUCUGCCGGGUAGUGAUGUUACCGCGCCCUUGGCAGCGGUGGCACGACC [Omei KL Theo B SS C v1],275 nM
3,GCUGAGGAGUGAUGUUCCAAGUGAUGUUAACGAGGACCGGUACGGCCGCCACUCGAUACGGCCGGACCGUAAGAUAAACUACAGC [Same State - Tryptophan A (Freestyle 7)],315 nM
4,UCAUGUGCCAGUGAUGUUGGCGUACGUGAUACCAGACGAAUAAAAGUCCCUUGGCAGCACAAAUAAGCCAAGAUAGAUGAAUGAU [Exclusion Theophylline A GF 1],116 nM
5,UGGAUAUAGUGAUGUUAUAUAGAGAUAGAUACCAGUUAAGAGAAUAGCCCUUGGCAGCUGAAAGAAGUAUCAUUAGAGAAGAAUG [ExTheophyl.Ab],137 nM
6,GCCGUAGAUUGAAGGAGCGUGGAACUAUGGCUUGAACAGUGAUGUUGUUUAUCUAGGUAGCCGCAGGUAGGUCGCAAUCUACGGC,229 nM
7,ACCUACCAUUAGUGAUGUUAAUGGACGGAAGGAGCGCGGAUAUCUGCAGGUAGGUCGCCGAAGGCUAGACAUUGUCUAGCCAUUA [AK1 SS Arginine A],120 nM
8,UUUCUUUUAAUAACACUUUAUACAACUGAAGGAGCGACAAUAAAGUCAGGUAGGUCGCAGAAUUAAUGAGUGAUGUUCAUAUUUA [JR_ExcArginiA_Sub012],83 nM
9,AGACCACAAAGUGGUCAGUGUUCGCUCCGGCGAGGACCGGUACGGCCGCCACUCGCGAGUGAUGUUCGCGAGUGGAGCGAACACA [Omei KL Tryp A Exc A v1],86.3 nM
10,GUUAUGGACCUGGAUACCAGCUGGUACUAAGUGGGAGAAUGAAAGUGAUGUUUUCGUGCUAGCCCUUGGCAGCCAGCAACCCGCA [XTheo-B7],80.1 nM
11,AAUUUAUUAACUGAUACCAGACUUUAGCGUGUUUAUAAGUCAAGUGAUGUUUGACUAUUAGUCCCUUGGCAGCAGUAUUUAUUAA [JR_SSTheophyB_Sub022],120 nM
12,AACCACUCGUUACAUCACUAUCGAGUGGAACGAGGACCGGUACGGCCGCCACUCGGUAUCUUGCAGUGAUGUUGCAAGAAAGAAU [KL-SSTryp-A #dotplot2 strengthened],163 nM
13,UACUAACGUUAAGGAUAUGCGUCGAUUACCGGUAAGUGAUGUUUAGCGCCCGGGCAACGGUGGGUCGCAGAAGGUAAACACAGUU [theeternabot_sameState_KL_FMN_B_19],610 nM
14,AAGGGCUAGGCGGCCGCCACUGGUCGUGUACACAUACGAACCAGUGAUGUUGGUAUUGUAUGCGACAGGACCGGGCCUAGCCGAA [Exclusion - Tryptophan B (Freestyle 27)],291 nM
15,CGGAUGUAGUGAUGUUAUAUUAGAUGUAGACGAGGACCGGUACGGCCGCCACUCGUAACGGCUGCUAGCGCGUUGCGAGGUGUGC [ExTryptoA.Cl],510 nM
16,AAGUGAUGUUGUAGUGAUGUUGUGAUGUUGCAGGAUAUAUAGUGAUGUAGAAGGGUAAGGACUGUUUUUUUUUUUGAGUGAUGUU [ookooyzrmullin],73.3 nM
17,UAUGAAGGUGGAGGAUAUUGAUUGAAUCUUGGUCAGGAGUGAUGUUCCGGGAAGCCUUGGAUUCAUCGAGAAGGCCAAGGAUAGU [Extra 3],327 nM
